The target of one data set is T1, Sc.Ara1 (Saccharomyces cerevisiae, UniProt P38115).
T1 construct: N-terminal His tag (pET28a)
The data set can be described thus: dehydrogenase activity, microplate. The data set is classed as biochemical. The conditions noted are these: NAD+ or NADP+, 10 mM cofactor, 10 mM sugar; 37 °C.

Another data set concerns the target T2, Bm.Fdh (Burkholderia multivorans, UniProt A0A0H3KNE7).
T2 construct: gene BMULJ_04919; N-terminal His tag (pET28a)
The data set can be described thus: dehydrogenase activity, microplate. In kind it is biochemical. The conditions noted are these: NAD+ or NADP+, 10 mM cofactor, 10 mM sugar; 37 °C.

Another data set deals with T3, Pc.TadH (Trinickia caryophylli, UniProt A0A1X7DDC2).
T3 construct: gene SAMN06295900_10348; N-terminal His tag (pET28a)
T3 sequence (A0A1X7DDC2 1-334): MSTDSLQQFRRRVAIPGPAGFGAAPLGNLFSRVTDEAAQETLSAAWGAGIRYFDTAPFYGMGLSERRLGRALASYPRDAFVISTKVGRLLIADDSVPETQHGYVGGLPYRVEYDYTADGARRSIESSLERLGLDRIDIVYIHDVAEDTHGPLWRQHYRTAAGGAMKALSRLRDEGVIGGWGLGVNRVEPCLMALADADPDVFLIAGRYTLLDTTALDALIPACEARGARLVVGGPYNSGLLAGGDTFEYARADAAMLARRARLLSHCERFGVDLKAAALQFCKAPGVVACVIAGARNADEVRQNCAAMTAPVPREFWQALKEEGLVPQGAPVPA
Description: dehydrogenase activity, microplate. The conditions noted are these: NAD+ or NADP+; 37 °C. The data set is classed as biochemical.

The target of the next data set is T4, Ec.FucO (Escherichia coli, UniProt P0A9S1).
T4 construct: expressed from pEXT20 in E. coli TW64; protein extract
T4 sequence (P0A9S1 1-382): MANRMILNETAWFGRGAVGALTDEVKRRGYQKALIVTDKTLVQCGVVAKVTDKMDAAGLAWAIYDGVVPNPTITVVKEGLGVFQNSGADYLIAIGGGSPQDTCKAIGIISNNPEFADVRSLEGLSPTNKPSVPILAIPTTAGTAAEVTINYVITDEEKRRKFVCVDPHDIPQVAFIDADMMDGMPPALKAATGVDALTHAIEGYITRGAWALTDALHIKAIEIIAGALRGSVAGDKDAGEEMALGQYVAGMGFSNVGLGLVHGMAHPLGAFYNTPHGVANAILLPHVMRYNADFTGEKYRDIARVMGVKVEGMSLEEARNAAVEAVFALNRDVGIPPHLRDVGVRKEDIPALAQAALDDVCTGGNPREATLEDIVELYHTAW
Description: ethylene glycol dehydrogenase activity in protein extract; empty-plasmid extract inactive. The data set is classed as biochemical. The conditions noted are these: 50 mM ethylene glycol; NAD+.

The target of a further data set is T5, Go.Adh (Gluconobacter oxydans, UniProt Q5FU50).
T5 construct: gene GOX0313; expressed from pEXT20 in E. coli TW64; protein extract
T5 sequence (Q5FU50 1-343): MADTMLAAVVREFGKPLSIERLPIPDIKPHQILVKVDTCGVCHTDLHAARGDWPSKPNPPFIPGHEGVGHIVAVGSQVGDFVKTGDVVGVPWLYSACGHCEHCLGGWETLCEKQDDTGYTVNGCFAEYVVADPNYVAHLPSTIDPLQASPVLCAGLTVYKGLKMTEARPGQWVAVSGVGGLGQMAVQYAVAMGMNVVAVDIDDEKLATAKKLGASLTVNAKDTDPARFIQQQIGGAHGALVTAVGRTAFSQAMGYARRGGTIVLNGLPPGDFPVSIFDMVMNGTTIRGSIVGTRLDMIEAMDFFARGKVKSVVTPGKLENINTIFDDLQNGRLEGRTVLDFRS
The data set is described as above. The conditions noted are these: 50 mM ethylene glycol; NAD+. In kind it is biochemical.

The next data set deals with T6, Hh.AraD.
T6 construct: gene E2K99_19880
The conditions noted are these: 37 °C.

Substrate in data set [1]: C[C@H](O)[C@H]1OC(=O)[C@@H](O)[C@@H]1O
Description: lactonase kinetics, Michaelis-Menten fit. The data set is classed as biochemical, Thermogutta terrifontis. The conditions noted are these: 37 °C.

Substrate in data set [2]: O=C1OC[C@@H](O)[C@@H]1O
The data set can be described thus: lactonase kinetics, Michaelis-Menten fit. The data set is classed as biochemical, Thermogutta terrifontis. The conditions noted are these: 37 °C.

Substrate in the data set “purified protein”: O=C(O)[C@@H](O)[C@H](O)CO
Description: purified protein. The conditions noted are these: 37 °C.

A word on the Vmax: it is the top rate of the reaction or transport when substrate is in excess.

T2 sequence (A0A0H3KNE7 whole entry): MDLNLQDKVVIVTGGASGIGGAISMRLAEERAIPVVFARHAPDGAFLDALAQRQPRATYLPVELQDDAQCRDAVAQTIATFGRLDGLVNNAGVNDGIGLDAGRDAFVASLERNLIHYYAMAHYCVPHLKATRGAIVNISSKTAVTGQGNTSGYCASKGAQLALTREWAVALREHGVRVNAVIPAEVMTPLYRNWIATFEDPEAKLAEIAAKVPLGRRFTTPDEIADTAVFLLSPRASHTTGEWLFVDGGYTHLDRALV

With `O=C[C@@H](O)[C@H](O)CO` [D-threose], the specific activity result is “Sc.Ara1, Pc.TadH and Bm.Fdh displayed measurable activity on D-threose” at Sc.Ara1; “Sc.Ara1, Pc.TadH and Bm.Fdh displayed measurable activity on D-threose” on Bm.Fdh. Further, the “specific activity (no saturation up to 50 mM)” value on Pc.TadH is “Sc.Ara1, Pc.TadH and Bm.Fdh displayed measurable activity on D-threose”.

For `OCCO` [ethylene glycol], the activity result at Ec.FucO and at Go.Adh was “all candidate enzymes were active on EG” each time.

With `O=C(O)[C@@H](O)[C@H](O)CO` [D-threonate], the Km in the data set with Hh.AraD worked out at 1.21 mM.

B1: Tt.Lac11 (Thermogutta terrifontis) (protein)
chain: MRKLLGSSAIHVLSRRTGYGMYFLILALGVATQVVFGAEPSQNPSEKVAWIERADPGLDDLIAPDAQVEVLAEGFEWSEGPVWIPEGGYLLFSDVPKNTIYRWKEGQGIDIFLKPSGYTGFRERGGESGSNGLALDRQGRLLLCQHGDRRVARWEKGCFITLADQYEGKPLNSPNDLVVKSNGDIYFTDPPYGMTPEAQRDPNALGFCGVYRISADGKLTLLVRDMTRPNGIAFSPDEKTLYVAQSDPQRPLWMAFPVREDGTLGEGKVFFDAKPWQQSGLPGLPDGMKVDQKGNLFATGPGGVNIFRPDGTFLGRIRVKVPTANCAFGDDGSTLYITADMYLLRVKTKTKGLGF
notes: full-length with predicted N-terminal signal peptide; hexa-His tag (pET28a)
As for B1, in [1], the Km is given as 0.84 (±0.06) × 10^-3 M. Further, in data set [2], the Km is 2.92 (±0.13) mM, the Vmax came to 1.76 µmol/min/mg and the Vmax/Km came out at 603 µL/min/mg.

B2: Aa.AraD (Paracidovorax avenae ATCC 19860) (protein)
chain: MSTDALATQSLLILNDRDNVAVARTELGAGMELRLAGGEVLEVMATVPAGHKIALRPIAKGDAVLKYGQVIGAASTPIGAGEHVHVHNVEMGDSSPTHLVGRAYVPTDPVEQPATFMGYVRADGRVGTRNYIGVISSVNCSATVCKAIAQAFTGPALGAYPGVDGVVAITHGTGCGMSGEGEGIELLRRTLSGYIAHPNFAAVLVIGLGCEVNQVEGLTGRLPLPEGRVRTMTIQDAGGTREAIAQGIDIVRDMAAAASGARRTQVPASHLVVGLQCGGSDGYSGISANPVLGAAVDMLVRHGGTAILSETPEIYGAEHLLTARAASAEVAERLMARLAWWEAYTQRNGANMNNNPSPGNKAGGITTILEKSLGAVAKGGGSGLMDVVEYAQPVHSRGLVFMDTPGYDPVSATGQVAGGANLICFTTGRGSTYGCKPTPSLKLATNTALFRNMGMDMDFNAGDVVDGTLGIAQAGRHLFELMLATASGDRTLSETHGLGDNEFVPWQLGAVM
Consider B2, for which, in the data set “purified protein”, the Km is listed as 1.95 (±0.53) mM, the Vmax is 0.12 µmol/min/mg and the Vmax/Km was 62 µL/min/mg.

The values are drawn from PMC10079672, “Construction of a synthetic metabolic pathway for biosynthesis of 2,4-dihydroxybutyric acid from ethylene glycol” (Nature Communications, 2023).
